Publication PMC6602975 (2019)
Each block holds one binder with its values, some of them ahead of it.

Columns and labels:
[1] = target: Unmodified nucleosome core particle (X. laevis histone octamer on 147 bp Widom-601 DNA) (X. laevis)
H4K16ac nucleosome = H4K16ac nucleosome (X. laevis | , acetyl-lysine at K16)

- Kd [1]: 1100 nM
B1: Wild-type Orc1 (1–214) BAH domain (domain or fragment)
chain: MAKTLKDLQGWEIITTDEQGNIIDGGQKRLRRRGAKTEHYLKRSSDGIKLGRGDSVVMHNEAAGTYSVYMIQELRLNTLNNVVELWALTYLRWFEVNPLAHYRQFNPDANILNRPLNYYNKLFSETANKNELYLTAELAELQLFNFIRVANVMDGSKWEVLKGNVDPERDFTVRYICEPTGEKFVDINIEDVKAYIKKVEPREAQEYLKDLTLP
modifications: N-alpha-acetyl on A2 (acetylated at the α-amino group when purified from eukaryotic cells)

- Kd [1]: 300 nM
- Kd (H4K16ac nucleosome): 1200 nM
B2: Sir3 BAH D205Q (domain or fragment)
chain: MAKTLKDLDGWQVIITDDQGRVIDDNNRRRSRKRGGENVFLKRISDGLSFGKGESVIFNDNVTETYSVYLIHEIRLNTLNNVVEIWVFSYLRWFELKPKLYYEQFRPDLIKEDHPLEFYKDKFFNEVNKSELYLTAELSEIWLKDFIAVGQILPESQWNDSSIDKIEDRDFLVRYACEPTAEKFVPIDIFQIIRRVKEMEPKQSQEYLKRVSVP
